T1: TNFR2-Fc (also known as Etarnercept, U.S. Pat. No. 5,447,851) (human, UniProt P20333 23-257)
T1 construct: range 23-257; The ELISAs and photograph assays name TNFR2-Fc; the SPR and MTT assays name ENBREL®; also called TNFR2-Fc (1-257); ENBREL®; not shown: Fc of human IgG
T1 sequence (looked up): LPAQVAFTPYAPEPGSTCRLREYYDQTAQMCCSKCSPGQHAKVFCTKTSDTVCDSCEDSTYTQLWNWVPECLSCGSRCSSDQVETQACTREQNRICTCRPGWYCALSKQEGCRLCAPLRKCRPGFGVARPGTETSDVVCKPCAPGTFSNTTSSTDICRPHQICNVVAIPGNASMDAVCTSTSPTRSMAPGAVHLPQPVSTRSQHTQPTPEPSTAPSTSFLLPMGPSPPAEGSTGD

B1: VEGF-A165 (produced from CHO cell) (ligand, UniProt P15692-4 27-191, looked up)
chain: APMAEGGGQNHHEVVKFMDVYQRSYCHPIETLVDIFQEYPDEIEYIFKPSCVPLMRCGGCCNDEGLECVPTEESNITMQIMRIKPHQGQHIGEMSFLQHNKCECRPKKDRARQENPCGPCSERRKHLFVQDPQTCKCSCKNTDSRCKARQLELNERTCRCDKPRR

Assays:
[1] = target: VEGF-A165 (produced from CHO cell) (UniProt P15692); test: SPR, BIAcore 3000, VEGF-A immobilized on CM5 chip
[2] = target: T1, TNFR2-Fc (also known as Etarnercept, …); test: ELISA, VEGF-A coated on the plate, Fc fusion protein 0.01-10 nM, detection with anti-human Fc-HRP, OD 415
Procedure: After washing the plate 3 times with each 400 μl of PBS, a blocking was performed with the blocking solution (1% BSA in 100 μl PBS) at 37° C. for 2 hour. […] After washing the plate 3 times with each 400 μl of PBS, 50 μl of 3,3′,5,5′-tetramethylbenzidine (TMB) solution (Sigma-Aldrich T0440) was added into the plate, and were incubated at room temperature for 10 min.

Row | Molecule | Kd [1] | binding result [2]
1 | VEGF-Trap (Fc fusion) | 1.35 pM | 
2 | B1 |  | no binding (tested: 10 nM)

— patent publication US20150183864A1 (KOREA ADVANCED INSTITUTE OF SCIENCE AND TECHNOLOGY KAIST, published 2015)
